B2: CDC42 (aa 1-178) (domain or fragment)
chain: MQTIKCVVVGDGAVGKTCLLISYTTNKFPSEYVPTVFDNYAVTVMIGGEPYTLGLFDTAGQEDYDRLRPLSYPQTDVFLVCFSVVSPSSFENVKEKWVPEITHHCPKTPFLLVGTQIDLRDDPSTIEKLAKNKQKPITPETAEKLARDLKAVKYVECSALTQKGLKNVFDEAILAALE
B4: IQGAP1 GRD1-RGCT S1443E (aa 877-1558) (domain or fragment)
chain: DQSDQDFQEELDLMKMREEVITLIRSNQQLENDLNLMDIKIGLLVKNKITLQDVVSHSKKLTKKNKEQLSDMMMINKQKGGLKALSKEKREKLEAYQHLFYLLQTNPTYLAKLIFQMPQNKSTKFMDSVIFTLYNYASNQREEYLLLRLFKTALQEEIKSKVDQIQEIVTGNPTVIKMVVSFNRGARGQNALRQILAPVVKEIMDDKSLNIKTDPVDIYKSWVNQMESQTGEASKLPYDVTPEQALAHEEVKTRLDSSIRNMRAVTDKFLSAIVSSVDKIPYGMRFIAKVLKDSLHEKFPDAGEDELLKIIGNLLYYRYMNPAIVAPDAFDIIDLSAGGQLTTDQRRNLGSIAKMLQHAASNKMFLGDNAHLSIINEYLSQSYQKFRRFFQTACDVPELQDKFNVDEYSDLVTLTKPVIYISIGEIINTHTLLLDHQDAIAPEHNDPIHELLDDLGEVPTIESLIGESSGNLNDPNKEALAKTEVSLTLTNKFDVPGDENAEMDARTILLNTKRLIVDVIRFQPGETLTEILETPATSEQEAEHQRAMQRRAIRDAKTPDKMKKSKEVKEDSNLTLQEKKEKIQTGLKKLTELGTVDPKNKYQELINDIARDIRNQRRYRQRRKAELVKLQQTYAALNSKATFYGEQVDYYKSYIKTCLDNLASKGKVSKKPREMKGKKSKK
B5: IQGAP1 GRD1-RGCT S1441E (aa 877-1558) (domain or fragment)
chain: DQSDQDFQEELDLMKMREEVITLIRSNQQLENDLNLMDIKIGLLVKNKITLQDVVSHSKKLTKKNKEQLSDMMMINKQKGGLKALSKEKREKLEAYQHLFYLLQTNPTYLAKLIFQMPQNKSTKFMDSVIFTLYNYASNQREEYLLLRLFKTALQEEIKSKVDQIQEIVTGNPTVIKMVVSFNRGARGQNALRQILAPVVKEIMDDKSLNIKTDPVDIYKSWVNQMESQTGEASKLPYDVTPEQALAHEEVKTRLDSSIRNMRAVTDKFLSAIVSSVDKIPYGMRFIAKVLKDSLHEKFPDAGEDELLKIIGNLLYYRYMNPAIVAPDAFDIIDLSAGGQLTTDQRRNLGSIAKMLQHAASNKMFLGDNAHLSIINEYLSQSYQKFRRFFQTACDVPELQDKFNVDEYSDLVTLTKPVIYISIGEIINTHTLLLDHQDAIAPEHNDPIHELLDDLGEVPTIESLIGESSGNLNDPNKEALAKTEVSLTLTNKFDVPGDENAEMDARTILLNTKRLIVDVIRFQPGETLTEILETPATSEQEAEHQRAMQRRAIRDAKTPDKMKKEKSVKEDSNLTLQEKKEKIQTGLKKLTELGTVDPKNKYQELINDIARDIRNQRRYRQRRKAELVKLQQTYAALNSKATFYGEQVDYYKSYIKTCLDNLASKGKVSKKPREMKGKKSKK

Assay [1] concerns the target RAC1 (aa 1-179) (human, UniProt P63000 1-179). As to the kind of experiment: mGppNHp-bound RAC1.
Assay [2] deals with B2. Description: mGppNHp-bound CDC42.
Assay [3] concerns the target CDC42 Q61L (human, UniProt P60953 1-178, Q61L). As to the kind of experiment: tGppNHp-bound CDC42 Q61L.
For assay [4], the target named is B4. Description: mGppNHp-bound CDC42.
For assay [5], the target named is B5. Description: mGppNHp-bound CDC42.

Chain of CDC42 Q61L (P60953 1-178 Q61L): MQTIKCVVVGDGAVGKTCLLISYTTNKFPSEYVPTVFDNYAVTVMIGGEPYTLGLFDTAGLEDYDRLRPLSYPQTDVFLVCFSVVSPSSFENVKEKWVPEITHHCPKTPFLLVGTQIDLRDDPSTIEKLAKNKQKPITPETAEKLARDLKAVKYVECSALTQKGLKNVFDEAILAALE

B1: IQGAP1 GRD1-CT (aa 863-1657) (domain or fragment)
chain: DPPMVVVRKFVHLLDQSDQDFQEELDLMKMREEVITLIRSNQQLENDLNLMDIKIGLLVKNKITLQDVVSHSKKLTKKNKEQLSDMMMINKQKGGLKALSKEKREKLEAYQHLFYLLQTNPTYLAKLIFQMPQNKSTKFMDSVIFTLYNYASNQREEYLLLRLFKTALQEEIKSKVDQIQEIVTGNPTVIKMVVSFNRGARGQNALRQILAPVVKEIMDDKSLNIKTDPVDIYKSWVNQMESQTGEASKLPYDVTPEQALAHEEVKTRLDSSIRNMRAVTDKFLSAIVSSVDKIPYGMRFIAKVLKDSLHEKFPDAGEDELLKIIGNLLYYRYMNPAIVAPDAFDIIDLSAGGQLTTDQRRNLGSIAKMLQHAASNKMFLGDNAHLSIINEYLSQSYQKFRRFFQTACDVPELQDKFNVDEYSDLVTLTKPVIYISIGEIINTHTLLLDHQDAIAPEHNDPIHELLDDLGEVPTIESLIGESSGNLNDPNKEALAKTEVSLTLTNKFDVPGDENAEMDARTILLNTKRLIVDVIRFQPGETLTEILETPATSEQEAEHQRAMQRRAIRDAKTPDKMKKSKSVKEDSNLTLQEKKEKIQTGLKKLTELGTVDPKNKYQELINDIARDIRNQRRYRQRRKAELVKLQQTYAALNSKATFYGEQVDYYKSYIKTCLDNLASKGKVSKKPREMKGKKSKKISLKYTAARLHEKGVLLEIEDLQVNQFKNVIFEISPTEEVGDFEVKAKFMGVQMETFMLHYQDLLQLQYEGVAVMKLFDRAKVNVNLLIFLLNKKFYGK
B1: the koff in assay [1] was determined as 0.66 s⁻¹; in assay [2], 0.39 s⁻¹; in assay [3], 0.073 s⁻¹.

Turning to B2, the koff worked out at 2.32 s⁻¹ in assay [4] and 1.83 s⁻¹ in assay [5].

B3: IQGAP1 GRD1-RGCT wild type (aa 877-1558) (domain or fragment)
chain: DQSDQDFQEELDLMKMREEVITLIRSNQQLENDLNLMDIKIGLLVKNKITLQDVVSHSKKLTKKNKEQLSDMMMINKQKGGLKALSKEKREKLEAYQHLFYLLQTNPTYLAKLIFQMPQNKSTKFMDSVIFTLYNYASNQREEYLLLRLFKTALQEEIKSKVDQIQEIVTGNPTVIKMVVSFNRGARGQNALRQILAPVVKEIMDDKSLNIKTDPVDIYKSWVNQMESQTGEASKLPYDVTPEQALAHEEVKTRLDSSIRNMRAVTDKFLSAIVSSVDKIPYGMRFIAKVLKDSLHEKFPDAGEDELLKIIGNLLYYRYMNPAIVAPDAFDIIDLSAGGQLTTDQRRNLGSIAKMLQHAASNKMFLGDNAHLSIINEYLSQSYQKFRRFFQTACDVPELQDKFNVDEYSDLVTLTKPVIYISIGEIINTHTLLLDHQDAIAPEHNDPIHELLDDLGEVPTIESLIGESSGNLNDPNKEALAKTEVSLTLTNKFDVPGDENAEMDARTILLNTKRLIVDVIRFQPGETLTEILETPATSEQEAEHQRAMQRRAIRDAKTPDKMKKSKSVKEDSNLTLQEKKEKIQTGLKKLTELGTVDPKNKYQELINDIARDIRNQRRYRQRRKAELVKLQQTYAALNSKATFYGEQVDYYKSYIKTCLDNLASKGKVSKKPREMKGKKSKK
For the molecule B3, the off-rate (koff) in assay [1] is 2.78 s⁻¹; in assay [2] it was 2.23 s⁻¹. As for B4, the off-rate (koff) in assay [1] stood at 2.82 s⁻¹. Same read-out and setting: with B5 the figure was 2.71 s⁻¹.

A word on the koff: it is a measure of how fast the partners let go of each other. A high value points to fast dissociation.
